Source: patent US9176064B2, “Bisubstrate fluorescent probes for protein kinase CK2” (University of Tartu, priority 2012, dated 2015)
Where a SMILES comes first, the peptide text is derived from it. [ ]: non-standard residue; d: D form. The star is where a group is joined. X1 = O=C(CCCCCCCn1cnc2c(Br)c(Br)c(Br)c(Br)c21)*

Key:
Test in all cases: Kinase panel residual activity
Type in all cases: biochemical
Conditions in all cases: compound at 1 micromolar
PIM1 = PIM1 (Homo sapiens, UniProt P11309)
JAK2 = JAK2 (Homo sapiens, UniProt O60674)
Chain of JAK2 (O60674 whole entry, species assumed): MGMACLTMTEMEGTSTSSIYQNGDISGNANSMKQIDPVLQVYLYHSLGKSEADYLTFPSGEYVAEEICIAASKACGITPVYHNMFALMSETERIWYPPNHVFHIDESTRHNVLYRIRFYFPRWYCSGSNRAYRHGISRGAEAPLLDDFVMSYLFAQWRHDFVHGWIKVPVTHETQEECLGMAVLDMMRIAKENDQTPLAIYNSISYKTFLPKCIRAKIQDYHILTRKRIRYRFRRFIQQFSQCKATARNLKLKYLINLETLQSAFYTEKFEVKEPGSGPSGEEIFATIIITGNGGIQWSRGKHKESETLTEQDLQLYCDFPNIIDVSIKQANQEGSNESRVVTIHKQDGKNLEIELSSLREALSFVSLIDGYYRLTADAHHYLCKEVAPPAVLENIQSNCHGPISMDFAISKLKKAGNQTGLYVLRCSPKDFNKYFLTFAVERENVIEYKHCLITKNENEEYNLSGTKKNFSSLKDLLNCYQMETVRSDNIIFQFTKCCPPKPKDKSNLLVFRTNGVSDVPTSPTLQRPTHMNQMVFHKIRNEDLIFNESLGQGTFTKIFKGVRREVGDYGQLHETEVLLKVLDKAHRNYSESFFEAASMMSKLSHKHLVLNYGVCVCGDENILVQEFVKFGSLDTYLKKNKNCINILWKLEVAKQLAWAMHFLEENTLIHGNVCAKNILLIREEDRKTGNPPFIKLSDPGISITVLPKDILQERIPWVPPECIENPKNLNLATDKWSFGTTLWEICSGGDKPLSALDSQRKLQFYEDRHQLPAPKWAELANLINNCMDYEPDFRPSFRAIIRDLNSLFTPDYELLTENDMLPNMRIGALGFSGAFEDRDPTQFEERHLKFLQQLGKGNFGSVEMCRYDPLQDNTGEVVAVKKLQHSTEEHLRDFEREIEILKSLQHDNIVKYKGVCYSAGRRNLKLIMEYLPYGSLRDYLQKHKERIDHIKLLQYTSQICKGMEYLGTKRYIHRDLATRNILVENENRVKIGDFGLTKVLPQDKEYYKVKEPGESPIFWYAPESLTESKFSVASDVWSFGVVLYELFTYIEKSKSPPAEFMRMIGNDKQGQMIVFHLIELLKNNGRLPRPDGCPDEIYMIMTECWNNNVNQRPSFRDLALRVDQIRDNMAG

MAPKAP-K3 = MAPKAP-K3 (Homo sapiens, UniProt Q16644)
Chain of MAPKAP-K3 (Q16644 whole entry, species assumed): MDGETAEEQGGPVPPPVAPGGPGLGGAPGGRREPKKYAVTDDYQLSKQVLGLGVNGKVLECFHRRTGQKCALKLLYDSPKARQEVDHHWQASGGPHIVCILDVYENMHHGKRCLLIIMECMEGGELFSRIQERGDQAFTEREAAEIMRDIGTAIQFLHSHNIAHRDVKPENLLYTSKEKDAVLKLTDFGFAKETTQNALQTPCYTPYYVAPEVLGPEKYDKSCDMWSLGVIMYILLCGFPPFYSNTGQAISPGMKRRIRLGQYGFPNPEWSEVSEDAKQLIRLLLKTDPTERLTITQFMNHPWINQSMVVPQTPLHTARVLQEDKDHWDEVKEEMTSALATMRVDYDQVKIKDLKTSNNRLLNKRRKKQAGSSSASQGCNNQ

CK1γ2 = CK1γ2 (Homo sapiens, UniProt P78368)
MAPKAP-K2 = MAPKAP-K2 (Homo sapiens, UniProt P49137)
Chain of MAPKAP-K2 (P49137 whole entry, species assumed): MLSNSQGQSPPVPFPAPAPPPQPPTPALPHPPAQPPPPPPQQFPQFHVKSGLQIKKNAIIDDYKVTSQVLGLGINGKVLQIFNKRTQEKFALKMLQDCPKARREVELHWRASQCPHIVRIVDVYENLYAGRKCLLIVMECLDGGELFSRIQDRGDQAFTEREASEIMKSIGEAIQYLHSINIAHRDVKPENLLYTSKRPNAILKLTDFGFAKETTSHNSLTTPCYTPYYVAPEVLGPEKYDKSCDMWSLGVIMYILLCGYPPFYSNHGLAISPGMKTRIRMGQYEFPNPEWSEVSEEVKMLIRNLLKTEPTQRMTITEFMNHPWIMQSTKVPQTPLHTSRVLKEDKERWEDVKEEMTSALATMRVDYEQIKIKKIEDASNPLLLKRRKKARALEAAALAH

ROCK 2 = ROCK 2 (Homo sapiens, UniProt O75116)
CAMKKb = CAMKKb (Homo sapiens, UniProt Q96RR4)
MELK = MELK (Homo sapiens, UniProt Q14680)
Chain of MELK (Q14680 whole entry, species assumed): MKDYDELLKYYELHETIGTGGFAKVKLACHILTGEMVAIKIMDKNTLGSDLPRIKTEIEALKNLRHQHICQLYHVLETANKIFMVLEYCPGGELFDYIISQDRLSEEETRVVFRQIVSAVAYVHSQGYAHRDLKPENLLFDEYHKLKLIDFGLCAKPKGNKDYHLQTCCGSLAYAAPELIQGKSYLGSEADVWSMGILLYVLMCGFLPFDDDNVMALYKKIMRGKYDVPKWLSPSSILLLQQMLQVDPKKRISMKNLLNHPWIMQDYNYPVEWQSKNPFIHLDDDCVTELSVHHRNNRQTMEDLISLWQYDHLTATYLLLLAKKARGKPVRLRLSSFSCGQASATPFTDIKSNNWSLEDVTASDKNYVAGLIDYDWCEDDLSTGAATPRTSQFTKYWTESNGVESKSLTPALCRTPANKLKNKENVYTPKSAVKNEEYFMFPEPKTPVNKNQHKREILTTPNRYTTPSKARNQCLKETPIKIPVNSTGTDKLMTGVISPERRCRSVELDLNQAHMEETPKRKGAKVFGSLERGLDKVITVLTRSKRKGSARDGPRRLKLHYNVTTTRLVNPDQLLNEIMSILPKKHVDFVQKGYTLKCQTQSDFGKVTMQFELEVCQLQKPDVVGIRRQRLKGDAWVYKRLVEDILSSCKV

MEKK1 = MEKK1 (Homo sapiens, UniProt Q13233)
Chain of MEKK1 (Q13233 whole entry, species assumed): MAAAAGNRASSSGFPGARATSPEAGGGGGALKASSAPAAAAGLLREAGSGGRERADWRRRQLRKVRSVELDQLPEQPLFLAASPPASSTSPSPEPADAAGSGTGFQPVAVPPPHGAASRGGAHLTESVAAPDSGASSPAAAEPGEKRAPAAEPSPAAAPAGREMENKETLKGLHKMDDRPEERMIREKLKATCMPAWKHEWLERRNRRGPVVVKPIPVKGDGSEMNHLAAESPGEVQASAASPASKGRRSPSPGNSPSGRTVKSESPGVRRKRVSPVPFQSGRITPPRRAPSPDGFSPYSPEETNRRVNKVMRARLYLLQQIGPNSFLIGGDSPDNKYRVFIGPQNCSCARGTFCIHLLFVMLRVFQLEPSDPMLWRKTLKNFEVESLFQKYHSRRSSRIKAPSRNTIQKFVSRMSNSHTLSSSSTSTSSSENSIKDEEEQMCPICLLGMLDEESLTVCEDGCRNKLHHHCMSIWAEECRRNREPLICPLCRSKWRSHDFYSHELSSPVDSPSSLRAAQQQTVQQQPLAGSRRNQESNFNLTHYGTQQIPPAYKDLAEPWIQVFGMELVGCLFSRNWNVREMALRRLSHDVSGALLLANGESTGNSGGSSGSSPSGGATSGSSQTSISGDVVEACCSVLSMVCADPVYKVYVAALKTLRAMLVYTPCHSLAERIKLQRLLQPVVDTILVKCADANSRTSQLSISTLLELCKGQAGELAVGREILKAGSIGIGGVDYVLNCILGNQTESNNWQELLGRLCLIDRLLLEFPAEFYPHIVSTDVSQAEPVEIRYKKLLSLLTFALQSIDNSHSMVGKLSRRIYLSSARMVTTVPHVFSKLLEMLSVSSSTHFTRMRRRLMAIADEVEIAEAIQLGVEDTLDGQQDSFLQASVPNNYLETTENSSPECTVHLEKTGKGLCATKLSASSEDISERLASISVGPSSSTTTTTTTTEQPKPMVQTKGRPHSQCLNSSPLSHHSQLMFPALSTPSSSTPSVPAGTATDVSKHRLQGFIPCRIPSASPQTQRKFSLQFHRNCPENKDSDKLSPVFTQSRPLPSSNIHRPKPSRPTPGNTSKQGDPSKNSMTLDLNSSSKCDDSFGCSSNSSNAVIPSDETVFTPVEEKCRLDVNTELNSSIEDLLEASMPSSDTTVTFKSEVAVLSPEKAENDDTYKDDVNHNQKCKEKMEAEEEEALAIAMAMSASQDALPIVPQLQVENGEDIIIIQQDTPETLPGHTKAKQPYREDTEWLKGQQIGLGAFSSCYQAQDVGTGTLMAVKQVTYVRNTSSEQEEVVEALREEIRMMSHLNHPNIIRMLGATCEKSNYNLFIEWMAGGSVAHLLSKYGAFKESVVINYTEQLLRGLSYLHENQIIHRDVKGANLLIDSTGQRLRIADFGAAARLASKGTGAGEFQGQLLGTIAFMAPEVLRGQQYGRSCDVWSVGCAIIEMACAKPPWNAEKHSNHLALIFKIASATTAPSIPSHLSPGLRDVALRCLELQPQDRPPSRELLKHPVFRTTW

STK33 = STK33 (Homo sapiens, UniProt Q9BYT3)
ABL = ABL (Homo sapiens, UniProt P00519)
EPH-B1 = molecular target: T1, EPH-B1 (Homo sapiens, UniProt P54762)
T1 sequence (P54762 18-984): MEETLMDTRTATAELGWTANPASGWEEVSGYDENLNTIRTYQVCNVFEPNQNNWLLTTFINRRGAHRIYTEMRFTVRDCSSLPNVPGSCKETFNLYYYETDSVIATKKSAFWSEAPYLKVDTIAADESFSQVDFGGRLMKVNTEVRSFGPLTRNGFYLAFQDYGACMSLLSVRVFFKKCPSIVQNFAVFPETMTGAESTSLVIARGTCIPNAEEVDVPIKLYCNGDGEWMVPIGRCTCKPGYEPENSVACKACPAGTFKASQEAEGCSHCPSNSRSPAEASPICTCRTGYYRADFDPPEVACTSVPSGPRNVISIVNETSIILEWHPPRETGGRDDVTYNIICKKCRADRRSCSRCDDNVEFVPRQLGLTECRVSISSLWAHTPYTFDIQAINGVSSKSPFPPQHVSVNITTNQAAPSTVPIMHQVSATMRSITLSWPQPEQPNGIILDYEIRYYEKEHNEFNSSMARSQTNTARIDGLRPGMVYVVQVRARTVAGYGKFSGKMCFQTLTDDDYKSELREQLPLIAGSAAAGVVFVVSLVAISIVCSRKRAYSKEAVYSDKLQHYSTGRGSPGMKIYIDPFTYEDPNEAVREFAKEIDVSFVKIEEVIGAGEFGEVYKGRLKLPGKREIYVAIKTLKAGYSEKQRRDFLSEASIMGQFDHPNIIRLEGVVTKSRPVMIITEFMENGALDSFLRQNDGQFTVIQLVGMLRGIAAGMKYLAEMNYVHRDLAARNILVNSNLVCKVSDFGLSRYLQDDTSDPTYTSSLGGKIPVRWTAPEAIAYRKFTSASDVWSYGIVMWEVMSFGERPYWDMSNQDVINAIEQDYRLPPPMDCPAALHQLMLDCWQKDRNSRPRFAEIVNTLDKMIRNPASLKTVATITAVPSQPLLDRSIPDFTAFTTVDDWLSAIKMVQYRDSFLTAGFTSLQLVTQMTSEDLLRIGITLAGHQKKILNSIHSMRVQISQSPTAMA

MSK1 = MSK1 (Homo sapiens, UniProt O75582)
Chain of MSK1 (O75582 whole entry, species assumed): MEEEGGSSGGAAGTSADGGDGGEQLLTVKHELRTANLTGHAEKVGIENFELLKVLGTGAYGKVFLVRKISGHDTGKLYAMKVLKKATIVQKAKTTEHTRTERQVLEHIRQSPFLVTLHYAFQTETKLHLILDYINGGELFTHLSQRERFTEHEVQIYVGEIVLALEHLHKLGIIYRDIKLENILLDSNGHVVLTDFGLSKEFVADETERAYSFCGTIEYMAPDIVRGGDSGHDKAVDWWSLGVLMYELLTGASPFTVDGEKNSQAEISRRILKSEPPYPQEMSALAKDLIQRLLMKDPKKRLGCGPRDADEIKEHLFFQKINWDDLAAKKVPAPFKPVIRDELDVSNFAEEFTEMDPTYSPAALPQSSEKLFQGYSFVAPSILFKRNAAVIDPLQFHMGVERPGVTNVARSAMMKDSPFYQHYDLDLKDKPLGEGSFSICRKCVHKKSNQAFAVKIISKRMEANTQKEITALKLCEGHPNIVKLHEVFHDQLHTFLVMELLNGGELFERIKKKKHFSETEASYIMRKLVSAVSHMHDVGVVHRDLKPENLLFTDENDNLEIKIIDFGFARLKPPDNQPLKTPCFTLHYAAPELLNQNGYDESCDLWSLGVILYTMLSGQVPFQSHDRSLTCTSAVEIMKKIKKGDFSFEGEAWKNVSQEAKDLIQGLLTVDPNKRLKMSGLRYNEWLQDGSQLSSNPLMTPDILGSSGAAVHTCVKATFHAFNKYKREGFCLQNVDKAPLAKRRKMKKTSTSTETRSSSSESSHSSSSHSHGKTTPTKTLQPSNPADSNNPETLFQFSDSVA

JNK2 = JNK2 (Homo sapiens, UniProt P45984)
ULK1 = molecular target: T2, ULK1 (Homo sapiens, UniProt O75385)
T2 sequence (O75385 1-1050): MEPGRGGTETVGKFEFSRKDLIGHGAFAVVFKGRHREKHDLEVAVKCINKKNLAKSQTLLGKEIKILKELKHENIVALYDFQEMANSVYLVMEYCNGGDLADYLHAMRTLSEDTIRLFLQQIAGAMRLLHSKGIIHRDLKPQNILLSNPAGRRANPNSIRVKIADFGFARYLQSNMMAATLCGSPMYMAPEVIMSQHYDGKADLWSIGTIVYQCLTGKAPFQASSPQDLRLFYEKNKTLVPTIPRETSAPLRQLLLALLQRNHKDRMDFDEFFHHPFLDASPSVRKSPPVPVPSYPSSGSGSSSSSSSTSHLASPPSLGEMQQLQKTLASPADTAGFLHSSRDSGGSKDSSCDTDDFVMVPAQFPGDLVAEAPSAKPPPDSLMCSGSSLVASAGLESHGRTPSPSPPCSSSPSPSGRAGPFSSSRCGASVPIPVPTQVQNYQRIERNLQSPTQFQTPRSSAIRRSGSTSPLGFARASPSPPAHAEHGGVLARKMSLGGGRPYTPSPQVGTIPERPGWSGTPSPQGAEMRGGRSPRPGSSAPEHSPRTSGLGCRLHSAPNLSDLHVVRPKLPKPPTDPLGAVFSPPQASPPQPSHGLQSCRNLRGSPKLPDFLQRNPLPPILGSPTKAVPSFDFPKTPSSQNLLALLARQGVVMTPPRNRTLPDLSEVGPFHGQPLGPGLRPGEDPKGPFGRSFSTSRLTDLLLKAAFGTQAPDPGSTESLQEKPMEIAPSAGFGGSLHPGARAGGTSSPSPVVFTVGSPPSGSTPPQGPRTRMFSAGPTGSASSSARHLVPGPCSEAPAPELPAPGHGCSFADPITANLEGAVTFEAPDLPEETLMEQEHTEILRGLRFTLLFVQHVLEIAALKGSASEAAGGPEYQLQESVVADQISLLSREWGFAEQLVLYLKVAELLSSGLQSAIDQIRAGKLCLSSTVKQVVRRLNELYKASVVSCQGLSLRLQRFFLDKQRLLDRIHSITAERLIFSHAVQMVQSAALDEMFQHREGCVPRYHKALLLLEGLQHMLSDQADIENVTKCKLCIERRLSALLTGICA

RIPK2 = RIPK2 (Homo sapiens, UniProt O43353)
MAP4K5 = MAP4K5 (Homo sapiens, UniProt Q9Y4K4)

NCCCC[C@H](NC(=O)[C@H](CC(=O)O)NC(=O)[C@H](CC(=O)O)NC(=O)[C@H](CC(=O)O)NC(=O)[C@H](CC(=O)O)NC(=O)[C@H](CC(=O)O)NC(=O)[C@@H](CC(=O)O)NC(=O)CCCCCCCn1cnc2c(Br)c(Br)c(Br)c(Br)c21)C(=O)O [TBBI-OcA-(D-Asp)-(L-Asp)5-(L-Lys)-OH] (X1-[dD]DDDDDK-OH)
remaining activity at 1 µM (PIM1): 62%
remaining activity at 1 µM (JAK2): 66%
remaining activity at 1 µM (MAPKAP-K3): 69%
remaining activity at 1 µM (CK1γ2): 71%
remaining activity at 1 µM (MAPKAP-K2): 89%
remaining activity at 1 µM (ROCK 2): 91%
remaining activity at 1 µM (CAMKKb): 91%
remaining activity at 1 µM (MELK): 92%
remaining activity at 1 µM (MEKK1): 95%
remaining activity at 1 µM (STK33): 96%
remaining activity at 1 µM (ABL): 101%
remaining activity at 1 µM (EPH-B1): 102%
remaining activity at 1 µM (MSK1): 102%
remaining activity at 1 µM (JNK2): 105%
remaining activity at 1 µM (ULK1): 111%
remaining activity at 1 µM (RIPK2): 120%
remaining activity at 1 µM (MAP4K5): 132%
